Laboratory results published in patent publication US20220195015A1 (published 2022).
Substitutions are numbered along the chain they refer to.

B1: C067 (antibody, V domains shown)
VH: VQLVESGGGVVQPGRSLRLSCAASGFSFRIFGMNWVRQAPGKGLDWVAGISHDGSDKYFADSVKGRFTISRDNSKNTLYLQMNSLRADDTAVYYCARDMEVDYYDRSGHYHVFHAFDIWGQGTMVTVSS
VL: DIVMTQSPDSLAVSLGARATINCKSSQSILYSSDNKSSLAWYQQKPGHPPKLLIYWASTRESGVPDRFSGSESGTDFTLTISNLQGEDVAVYYCQQYYSIPRSFGQGTKLEIK
B2: C069 (antibody, V domains shown)
VH: QVQLVQSGAEVKKPGSSVNVSCKASGGTFSTYAIHWVRQAPGQGLEWMGGIIPLFHTANYAQKFQGRVTITADESTSTAYMELSSLRSEDTAMYYCAINTQWDLVPRWGRGTLVTVSS
VL: EIVLTQSPGTLSLAPGERATLSCRASQSVNSNYLAWYQQKPGQAPRLLIYGASSRATGIPDRFSGSGSGTDFTLTISRLEPEDFAVYYCQQYGFSLYSFGQGTKLEIK
B3: C066 (antibody, V domains shown)
VH: EVQLVESGGGLIQPGGSLRLSCAASGLLVSRNYMTWVRQAPGKGLEWVSVIYSGGSTFYADSVRGRFTISRDNSKNTLYLQMDSLRAEDTAVYYCARDVGDYYGMDVWGQGTTVTVSS
VL: DIQLTQSPAFLSASVGDRVTITCRASQGMSNYLAWYQQKPGKAPNLLIYTASTLQSGVPSRFSGSGSGTEFTLTISSLQPEDFATYYCQLLNSYPQLTFGGGTKVEIK
B4: C518 (antibody, V domains shown)
VH: EVQLVESGGGLIQPGGSLRLSCAASGITVSSNYMSWVRQAPGKGLEWVSVMYAGGSSFYADSVKGRFTISRDNSKNTLYLQMNSLRVEDTAVYYCARDLIALGVDVWGQGTTVTVSS
VL: B3 VL with A9S, M29I, N31S, N45K, T50A, Q96M, L97C, T98S, G101Q, V105L
B5: C089 (antibody, V domains shown)
VH: QVQLVESGGGVVQPGRSLRLSCAASGFTFRTYAMHWVRQAPGKGLEWVAVILSDGNNKYYADSVKGRFTISRDNSKNTLYLQMNSLRAEDTAIFYCAREQEANYYDISGYYHWGESLGYWGQGTLVTVSS
VL: DIQLTQSPSFLSASVGDRVTITCRASQGISSYLAWYQQKPGKAPKLLIYGASTLQSGVPSRFSGSGSGTEFTLTISSLQPEDFASYYCQKVNSHPPGLTFGGGTKVEIK
B6: C090 (antibody, V domains shown)
VH: B5 VH
VL: B5 VL with L46F, H94Y
B7: C088 (antibody, V domains shown)
VH: QVQLVQSGAEAKKPGASVKVSCKTSGYTFTNYFMHWVRQAPGQGPEWMGIIDSSDGGASYAQKFQGRVTMTRDTSTSTVYMELRSLKFEDTAVYYCARASTSTTSWSDALSLGSWGQGTLVTVSS
VL: QSVLTQPPSVSGAPGQRVTISCTGSSSNIGGGSVVHWYQQLPGTAPKLLIYANSNRPSGVPDRFSGSKSGTSASLAIAGLQAEDEADYYCQSWDNGLSASGVVFGGGTKLTVL
B8: C083 (antibody, V domains shown)
VH: EVQLVESGGGLVKPGGSLRLSCAASGFTFSSYSMNWVRQAPGKGLEWVSSISSSTSYIYYADSVKGRFTISRDNAKNSLYLQMNSLRAEDTAVYYCARERYGDNWGQGTLVTVSS
VL: QLVLTQSPSASASLGASVKLTCTLSSGHSSYAIAWHQQQPEKGPRYLMSLNSDGSHSKGDGIPDRFSGSSSGAERYLTISSLQSEDEADYYCQTWGPWVFGGGTKLTVL
B9: C063 (antibody, V domains shown)
VH: EVQLVQSGAEVKKPGDSLKISCKASGYSFTRYWIGWVRQMPGKGLDWMGIIYPGDSDTRYSSSFQGQVTISADKSISTAYLQWSSLKASDTSLYYCVRRASSTNFEFWGQGTLVTVSS
VL: SYELTQPPSVSVAPGQTATITCGGNNIGSKTVHWYQQKPGQAPVVVVYDDSDRPSGIPERFSGSKSGSTATLTITRVEAGDEADYYCQVWDSTSDHYVFGTGTKVAVI
B10: C081 (antibody, V domains shown)
VH: EVQLVESGGGLVKPGGSLRLSCAASGFTFSSAWMSWVRQAPGKGLEWVGRIKTKTDGGTKDYAAPVKGRFTISRDDSKNTLYLQMNSLKTEDTAVYYCTTTNDYGDYSPAYWGQGTLVTVSS
VL: not shown
B11: C065 (antibody, V domains shown)
VH: QVQLQESGPGLVKPSQTLSLTCTVSGGSISSSNYYWSWIRQHPGKGLEWIGYIDYSGGTYYNPSLKSRVTISVDTSKNQFSLKLSSVTAADTAVYYCARVSTTVTTYLVGGFDIWGQGTMVTVSS
VL: IRMTQSPSSLSASVGDRVTITCQASQDITNYLNWYQQKPGKAPKLLLYDASNLETGVPSRFSGSGSGTDFTFTISSLQPEDIATYYCQQYDNLPWTFGQGTKVEIK
B12: C062 (antibody, V domains shown)
VH: EVQLVESGGGLVKPGGSLRLTCAASGFTFSTYSMNWVRQAPGKGLEWVSSISSSSSYIYYADSVKGRFTISRDNAKNSLYLQMNSLRAEDTAVYYCARERGYYGGKTPPFLGGQGTLVTVSS
VL: NFMLTQPHSVSESPGKTVTISCTGSSGSIASNYVQWYQQRPGSAPTTVIYEDNQRPSGVPDRFSGSIDSSSNSASLTISGLKTEDEADYYCQSYDSSNYWVFGGGTKLTVL
B13: C085 (antibody, V domains shown)
VH: QVQLQESGPGLVKPSETLSLTCTVSGDSMSSYFWTWIRQPPGKGLECIGYFYPSGSTNYNPSLKSRVTISIDTSKNQFSLKLSSVTAADTAVYYCARLKQQLVGFGWFDPWGQGTLVTVSS
VL: QSVLTQPPSVSGAPGQRVTISCTGSSSNIGADYDVHWYQQFPGTAPKVLIYANTNRPSGVPERFSGSKSGTSASLAITGLQAEDEADYYCQSYDHSLNWVFGGGTKLTVL
B14: C086 (antibody, V domains shown)
VH: B13 VH with M29I, S31T, T35A, K43R, Y50S, Y52F, N58Y, I71V, S83N, T115S
VL: B13 VL with S26I, D34E, Q39V, G66A, S96R, N98H
B15: C064 (antibody, V domains shown)
VH: EVQLLESGGDLVQPGGSLRLSCAASGFTFSNYAMSWVRQAPGKGLEWVSAISGSGGNTYYADSVKGRFTISRDNSKNTLYLQMNSLRAEDTAVYYCAKAVHYGGNSDRRFSEPSAPFDYWGQGTLVTVSS
VL: QSALTQPASVSGSPGQSITISCTGTSSDVGSYNLVSWYQQHPGKAPKLMIYEGSKRPSGVSNRFSGSKSGNTASLTISGLQAEDEADYYCCSYAGSSTPYVFGTGTKVTVL
B16: C068 (antibody, V domains shown)
VH: QVQLVESGGGVVQPGRSLRLSCVASGFSFSTYGMHWVRQAPGKGLEWVALIWSDGSNKYYGDAAEGRFTISRDNSNNTLYLQMNNLRAEDTALYYCARDHSSSSFVYYYYMDVWGKGTTVTVSS
VL: QSALTQPRSVSGSPGQSVTISCTGTSSDIGGYNYVSWYQQHPDKAPKFIIFDVSKRPSGVPDRFSGSKSGNTASLTISGLQAEDEADYYCCSYAGPYPYVFGTGTKVTVL
B17: C519 (antibody, V domains shown)
VH: QVQLQESGPGLVKPSETLSLTCAVSGGSISSYYWSWIRQPPGKGLEWIGYIDTSGSTNYNPSLKSRVTMSVDTSKNQFSLNVNSVTAADTAVYFCGVCAGDCYAASVFDYRGQGTLVTVSS
VL: DIQMTQSPSSLSASVGDRVTITCQASQDIIFYLNWYQQKPGKAPKLLIYDASNLKTGVPSRFSGSGSGTDFAFTISSLQPEDIATYYCQQYDNLPLTFGGGTKVEIK
B18: C503 (antibody, V domains shown)
VH: QVQLQESGPGLVQPSGTLSLSCTVTGGSISSNNWWSWVRQSPVKGLEWIGEIYHNGNINYNPSLKSRVTMSIDKSKNHFSLKLSSVTAADTAVYYCARGDVLDWFDPWGQGTLVTVS
VL: QSALTQPASVSGSPGQSITFSCTGTSSDVGAYNYISWYQQHPGKAPKLMIYDVNNRPSGVSRRFSGSKSGNTASLTISGLQSEDEADYFCSSYAGNSTVRFGGGTKLTVL
B19: C506 (antibody, V domains shown)
VH: EVQLVESGGGLVQPGGSLRLSCAASGFTFSSYDMHWVRQGTGKGLEWVSVIGTAGDAYYPGSVKGRFTISRENAKNSLYLQMNSLRAGDTAVYYCARMVYDSSGFKGYFDLWGRGTLVTVSS
VL: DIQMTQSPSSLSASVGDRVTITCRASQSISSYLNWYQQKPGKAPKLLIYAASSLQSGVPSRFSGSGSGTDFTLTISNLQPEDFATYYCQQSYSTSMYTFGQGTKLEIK
B20: C504 (antibody, V domains shown)
VH: QVQLQESGPGLVKPSETLSLTCTVSGGSISSSYWNWIRQSPGKGLEWIGYIYYDGYTTFNPSLKSRVTISVDTSKNQFSLKLSSVTAADTAFYYCAAGLKGRSSSWYEYWGQGTLVTVSS
VL: DIQMTQSPSSLSASVGDRVTITCRASQSISSYLNWYQQKPGKAPKLLIYATSSLQSGVPSRFSGSGSGTDFTLTITSLQPEDFATYYCQQTYSSPHTFGQGTKLEIK
B21: C505 (antibody, V domains shown)
VH: EVQLLESGGGLVQPGGSLRLSCADSGFSFSTYGMSWVRQAPGKGLEWVSTISGSGDNTYHADSVKGRFTISRDNSKNTLYLQMNSLRAEDTAVYYCAKNIAEMSTFDDYFYYYGMDVWGQGTTVTVSS
VL: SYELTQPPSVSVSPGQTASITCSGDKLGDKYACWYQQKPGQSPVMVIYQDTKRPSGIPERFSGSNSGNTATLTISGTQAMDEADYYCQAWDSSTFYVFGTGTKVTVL
B22: C509 (antibody, V domains shown)
VH: QVQLQESGPGLVKPSGTLSLTCAVSGGSISSSNWWSWVRQPPGKGLEWIGEIYNSGSTNYNPSLKSRVTILVDKSKNQFSLKLSSVTAADTAVYYCAGSYSNYIGGVWFDPWGQGTLVTVSS
VL: EIVLTQSPATLSLSPGERATLSCRASQSVSTYLAWYQQKPGQAPRLLIYDASNRATGIPARFSGSGSGTDFTLTISSLEPEDFAVYYCQQRNNWLTFGGGTKVEIK
B23: C507 (antibody, V domains shown)
VH: EVQLVESGGGVVQPGRSLRLSCAASGFTFSSYAIHWVRQAPGKGLEWVAVISFDGSNKYYRDSVKGRFTISRDNGKNTLYLQMNSLRAEDTAVYYCAKAALGYCTNGVCYCDNWGQGTLVTVSS
VL: B12 VL with T77S, S96I, S97N, N98S, Y99L, K107R
B24: C502 (antibody, V domains shown)
VH: QVQLVQSGAEVKKPGSSVKVSCKASGDTFSSHAINWVRQAPGQGLEWMGRSIPMLGVTTSAQKFKGRVTITADHSTSTVFMDLSSLRSDDTAIYYCARGVVGATPGSFDLWGQGTMVTVSS
VL: EIVMTQSPATLSVSPGKRATLSCRASQSVRSNLAWYQQRPGQAPRLLIYDAATRATGIPTRFSGSGSGTEFTLTISSLQSEDFAVYYCQQYDNGLTFGGGTKVEIK

Target: SARS-CoV-2 spike protein receptor binding domain (RBD) (SARS-CoV-2, UniProt P0DTC2 319-539)
Experiment: ELISA on coated RBD protein

Compared with B1, B2 is 55-fold higher in EC50: 6.98 ng/mL for the first, 381 ng/mL for the second.

Going from B3 to B4, the EC50 falls from 4.2 ng/mL to 1.13 ng/mL (3.7-fold).

B5 and B6 are within 1.5-fold of each other in EC50: 4.69 ng/mL for the first, 6.22 ng/mL for the second.

Going from B7 to B8, the EC50 rises from 2.44 ng/mL to 25.1 ng/mL (10-fold).

Compared with B9, B10 is 33-fold lower in EC50: 414 ng/mL for the first, 12.5 ng/mL for the second.

First: B11
Second: B12
The EC50 of the first is 6.2-fold higher: 29.1 ng/mL for the first, 4.69 ng/mL for the second.

B13 and B14 are within 1.5-fold of each other in EC50: 2.38 ng/mL for the first, 3.01 ng/mL for the second.

Compared with B15, B16 is 66-fold lower in EC50: 363 ng/mL for the first, 5.46 ng/mL for the second.

B17 was tested, and the EC50 was 1.07 ng/mL.

Target: SARS-CoV-2 spike protein receptor binding domain (RBD), wild type (SARS-CoV-2, UniProt P0DTC2 319-539)
Experiment: ELISA, RBD protein coated on plate, antibody titrated

B18 and B19 are within 1.5-fold of each other in EC50: 6.55 ng/mL for the first, 5.94 ng/mL for the second.

First: B20
Second: B21
The EC50 of the first is 1.8-fold lower: 9.08 ng/mL for the first, 16 ng/mL for the second.

B22 and B23 are within 1.5-fold of each other in EC50: 4.44 ng/mL for the first, 5.6 ng/mL for the second.

In the case of B24, the EC50 is reported as 6.48 ng/mL.
